This note sets out measurements from paper PMC6961540.

The target in series [1] is T1, Ago2 (HaloTag-Ago2) (UniProt Q9UKV8 1-859). Kind of series: competition filter binding.
For series [2], the target named is T2, Ago2 (Flag-tagged, HFT-Ago2) (UniProt Q9UKV8 1-859). The series is described as follows: pull-down.
In series [3] the target is T2, Ago2 (Flag-tagged, HFT-Ago2). Kind of series: pull-down. This is another data set of the same source.
Series [4] concerns the target T1, Ago2 (HaloTag-Ago2). Kind of series: pull-down.
In series [5] the target is T2, Ago2 (Flag-tagged, HFT-Ago2). The series is described as follows: competition filter binding.
For series [6] the target is unchanged. Kind of series: filter binding.

Like-named read-outs stand apart in the source and are kept apart here.

T2 sequence (Q9UKV8 whole entry): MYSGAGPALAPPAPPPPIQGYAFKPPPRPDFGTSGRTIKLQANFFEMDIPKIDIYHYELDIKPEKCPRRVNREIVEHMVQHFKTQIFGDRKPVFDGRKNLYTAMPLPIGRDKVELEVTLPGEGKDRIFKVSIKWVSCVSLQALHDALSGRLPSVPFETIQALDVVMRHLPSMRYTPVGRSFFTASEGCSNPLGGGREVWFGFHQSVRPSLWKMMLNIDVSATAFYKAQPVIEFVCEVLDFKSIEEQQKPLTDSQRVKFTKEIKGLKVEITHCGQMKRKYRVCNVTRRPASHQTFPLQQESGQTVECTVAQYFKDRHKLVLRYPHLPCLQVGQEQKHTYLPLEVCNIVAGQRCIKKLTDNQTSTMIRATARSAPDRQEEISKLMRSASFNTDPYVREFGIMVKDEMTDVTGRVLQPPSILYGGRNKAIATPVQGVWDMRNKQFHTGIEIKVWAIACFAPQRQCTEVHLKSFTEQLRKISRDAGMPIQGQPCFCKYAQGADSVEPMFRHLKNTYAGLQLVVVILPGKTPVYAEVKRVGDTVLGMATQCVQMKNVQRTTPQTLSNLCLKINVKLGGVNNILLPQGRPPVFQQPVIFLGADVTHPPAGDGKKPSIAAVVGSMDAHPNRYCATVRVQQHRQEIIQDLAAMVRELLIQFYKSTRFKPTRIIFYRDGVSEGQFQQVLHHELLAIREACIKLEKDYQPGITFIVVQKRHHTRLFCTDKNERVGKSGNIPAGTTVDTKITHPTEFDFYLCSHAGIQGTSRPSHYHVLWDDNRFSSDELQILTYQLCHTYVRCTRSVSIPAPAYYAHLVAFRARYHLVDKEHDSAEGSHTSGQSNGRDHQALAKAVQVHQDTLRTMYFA
T1 sequence (Q9UKV8 whole entry): as above

B1: miR122-v2 guide / target-2 (seed + sup) (mixed)
RNA 1: UGGAGUGUGACACUAUCGAAAG
RNA 2: AUAGAAAAACACUCCUAA
modifications: 5'-phosphate on guide
Turning to B1, the binding signal in series [1] was about 5 fold bound over target-1.

B2: miR122-v1 guide / target-2 (seed-only) (mixed)
RNA 1: UGGAGUGUGACAGCGGCGAAAG
RNA 2: AUAGAAAAACACUCCUAA
modifications: 5'-phosphate on guide
Consider B2, for which the binding result in series [2] is on record as “binds”.

B3: miR122-v1 guide / target-1 with swapped (4 nt) bridge (mixed)
RNA 1: UGGAGUGUGACAGCGGCGAAAG
RNA 2: CCGCAAAAACACUCCUAA
modifications: 5'-phosphate on guide
On to B3, for which, in series [3], the binding result was “binds”.

B4: miR122-v2 guide / target-1 (seed-only) (mixed)
RNA 1: UGGAGUGUGACACUAUCGAAAG
RNA 2: CCGCAAAAAAAAAAACACUCCUAA
modifications: 5'-phosphate on guide
Regarding B4, the binding result in series [4] is recorded as “binds”.

B5: miR122-v1 guide / target-1 (seed + sup) (mixed)
RNA 1: UGGAGUGUGACAGCGGCGAAAG
RNA 2: CCGCAAAAAAAAAAACACUCCUAA
modifications: 5'-phosphate on guide
Molecule B5 had a binding signal in series [5] of about 13 fold bound over target-2. The molecule also came in with a dissociation constant Kd in series [6] of 5.6 ± 0.5 pM.

In general, Kd refers to the constant that tells how readily two partners part at equilibrium. A higher Kd goes with a looser complex.
